Publication PMC7835222, “PRMT3 interacts with ALDH1A1 and regulates gene-expression by inhibiting retinoic acid signaling” (Communications Biology, 2021)

Molecular target: T1, GST-tagged PRMT3 full-length protein (pGEX-PR-FL) (human, UniProt O60678-1 1-531)
T1 construct: Protein arginine methyltransferase 3 (PRMT3), human, full length; pGEX-6P2 vector; the legends mark a degraded GST-PRMT3 band beside the full-length one; also called GST-PRMT3; GST-PRMT3-FL
Test: pull-down; 15 µg GST-PRMT3 (wild type or mutant) on Glutathione Sepharose, 15 µg His-tagged AL-FL in solution, with or without 200 µM SAM or SAH; 20 mM HEPES pH 7.5, 150 mM KCl, 0.2 mM DTT, 1 mM EDTA, 10% glycerol; 4 °C, 10 h; blot with His antibody
Settings: both partners purified

T1 sequence (O60678 whole entry): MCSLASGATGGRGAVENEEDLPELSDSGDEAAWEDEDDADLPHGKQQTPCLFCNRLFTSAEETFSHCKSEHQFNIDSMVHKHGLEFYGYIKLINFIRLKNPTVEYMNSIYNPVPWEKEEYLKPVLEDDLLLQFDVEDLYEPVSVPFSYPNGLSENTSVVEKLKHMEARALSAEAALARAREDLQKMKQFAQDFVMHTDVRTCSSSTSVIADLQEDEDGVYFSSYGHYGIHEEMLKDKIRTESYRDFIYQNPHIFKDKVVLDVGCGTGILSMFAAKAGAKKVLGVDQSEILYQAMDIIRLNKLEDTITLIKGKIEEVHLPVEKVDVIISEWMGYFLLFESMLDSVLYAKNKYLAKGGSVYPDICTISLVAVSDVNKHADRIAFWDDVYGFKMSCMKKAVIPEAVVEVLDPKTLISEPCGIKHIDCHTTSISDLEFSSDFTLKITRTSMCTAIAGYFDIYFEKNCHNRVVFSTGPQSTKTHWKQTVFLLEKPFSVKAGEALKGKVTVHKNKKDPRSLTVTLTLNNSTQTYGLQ

- binding result: binds
B1: His-tagged ALDH1A1 full length (pET28a-AL-FL) (enzyme, human, UniProt P00352 1-501, looked up)
chain: MSSSGTPDLPVLLTDLKIQYTKIFINNEWHDSVSGKKFPVFNPATEEELCQVEEGDKEDVDKAVKAARQAFQIGSPWRTMDASERGRLLYKLADLIERDRLLLATMESMNGGKLYSNAYLNDLAGCIKTLRYCAGWADKIQGRTIPIDGNFFTYTRHEPIGVCGQIIPWNFPLVMLIWKIGPALSCGNTVVVKPAEQTPLTALHVASLIKEAGFPPGVVNIVPGYGPTAGAAISSHMDIDKVAFTGSTEVGKLIKEAAGKSNLKRVTLELGGKSPCIVLADADLDNAVEFAHHGVFYHQGQCCIAASRIFVEESIYDEFVRRSVERAKKYILGNPLTPGVTQGPQIDKEQYDKILDLIESGKKEGAKLECGGGPWGNKGYFVQPTVFSNVTDEMRIAKEEIFGPVQQIMKFKSLDDVIKRANNTFYGLSAGVFTKDIDKAITISSALQAGTVWVNCYGVVSAQCPFGGFKMSGNGRELGEYGFHEYTEVKTVTVKISQKNS
notes: Retinal dehydrogenase 1 (ALDH1A1), human, full length; pET28a vector; also called His-tagged AL-FL
